Results: patent US20190194718, “GENERATION OF TAGGED DNA FRAGMENTS” (QIAGEN GMBH, published 2019)

Target: BPHIN 1 (wild-type HIV-1 integrase) (Human immunodeficiency virus 1, UniProt P04585 P04585:1148-1435)
Assay: pGL2 fragments 150-500 bp; 5 mM MnCl2, 37 C
Settings: tags: BioProducts MD, LLC; chain copies: 4; partially double-stranded

B1: IN adaptor 7 (dsDNA)
DNA 1: AATGATACGGCGACCACCGAGATCTACACTCTTTCCCTACACGACGCTCTTCCGATCTAGCAGT
DNA 2: ACTGCT
binding result: binds
